According to patent US20110002926A1:
pKd: −log10 of the molar value.

How the values were obtained:
[1] = biological target: soluble HCV E2 (sE2661), HIS-tagged, baculovirus expressed (Hepatitis C virus (genotype not stated)); test: BIAcore SPR
[2] = biological target: HCV E1E2 glycoproteins of genotype 1b (Con1) (Hepatitis C virus genotype 1b (Con1)) (UniProt Q9WMX2); test: cell-based or functional assay
[3] = biological target: HCV E1E2 glycoproteins of genotype 2a (J6) (Hepatitis C virus genotype 2a (J6)) (UniProt P26660); test: cell-based or functional assay
[4] = biological target: soluble HCV E2 (sE2661), HIS-tagged, baculovirus expressed (Hepatitis C virus (genotype not stated)); test: BIAcore SPR, sE2 injected over antibody
[5] = biological target: soluble HCV E2 (sE2661), HIS-tagged, baculovirus expressed (Hepatitis C virus (genotype not stated)); test: BIAcore SPR, sE2 injected over antibody; lower end differs from Table 10

Sequence of HCV E1E2 glycoproteins of genotype 1b (Con1) (Hepatitis C virus genotype 1b (Con1)) (Q9WMX2 384-746 limits assumed, chain 1 of 2): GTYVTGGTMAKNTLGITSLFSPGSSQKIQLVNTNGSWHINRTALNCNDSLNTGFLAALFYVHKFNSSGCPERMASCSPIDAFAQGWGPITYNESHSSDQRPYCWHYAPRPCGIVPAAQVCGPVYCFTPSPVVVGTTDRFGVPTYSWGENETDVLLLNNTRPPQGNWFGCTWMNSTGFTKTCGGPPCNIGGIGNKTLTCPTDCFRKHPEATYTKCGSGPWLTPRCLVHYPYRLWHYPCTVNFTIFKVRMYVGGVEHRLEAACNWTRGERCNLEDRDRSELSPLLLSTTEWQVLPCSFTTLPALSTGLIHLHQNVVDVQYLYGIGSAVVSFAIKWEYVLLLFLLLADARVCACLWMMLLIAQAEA
Sequence of HCV E1E2 glycoproteins of genotype 1b (Con1) (Hepatitis C virus genotype 1b (Con1)) (Q9WMX2 192-383 limits assumed, chain 2 of 2): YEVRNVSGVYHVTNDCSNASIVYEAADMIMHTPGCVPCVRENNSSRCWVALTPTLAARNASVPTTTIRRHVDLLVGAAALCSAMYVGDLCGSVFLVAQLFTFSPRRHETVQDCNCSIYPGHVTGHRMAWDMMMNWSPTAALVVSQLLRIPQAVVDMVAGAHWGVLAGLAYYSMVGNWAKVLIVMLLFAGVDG

| Substance | pKd [1] | EC50 of HCVpp entry into Huh-7.5 cells (luciferase) [2] [µg/mL] | EC50 of HCVpp entry into Huh-7.5 cells (luciferase) [3] [µg/mL] | pKd [4] | pKd [5] |
| --- | --- | --- | --- | --- | --- |
| AP33 Fab | 7.30 | – | – | – | – |
| AP33 monoclonal antibody | – | 1.42 | 2.07 | 8.10 to 8.30 | 8.10 to 9.30 |
